Laboratory results reported in publication PMC4423211 (2015).

Experiments:
[1] = biological target: IL1RAPL1-ECD D292A (mouse) (UniProt P59823); assay: SPR; equilibrium; Biacore T200, 25 °C, 10 mM Hepes (pH 7.9), 150 mM NaCl, 0.05% Tween-20; IL1RAPL1-ECD-His6 amine-coupled on a CM5 chip (about 2,000 RU); PTPδ Ig1–Fn1 variants or mutants injected as analytes, 15.6 to 4,000 nM
[2] = biological target: IL1RAPL1-ECD D37A (mouse) (UniProt P59823); assay: as above
[3] = biological target: IL1RAPL1-ECD M75A/Y77A/P88A/F91A (mouse) (UniProt P59823); assay: as above
Chain of IL1RAPL1-ECD M75A/Y77A/P88A/F91A (mouse) (P59823 19-352 M75A/Y77A/P88A/F91A): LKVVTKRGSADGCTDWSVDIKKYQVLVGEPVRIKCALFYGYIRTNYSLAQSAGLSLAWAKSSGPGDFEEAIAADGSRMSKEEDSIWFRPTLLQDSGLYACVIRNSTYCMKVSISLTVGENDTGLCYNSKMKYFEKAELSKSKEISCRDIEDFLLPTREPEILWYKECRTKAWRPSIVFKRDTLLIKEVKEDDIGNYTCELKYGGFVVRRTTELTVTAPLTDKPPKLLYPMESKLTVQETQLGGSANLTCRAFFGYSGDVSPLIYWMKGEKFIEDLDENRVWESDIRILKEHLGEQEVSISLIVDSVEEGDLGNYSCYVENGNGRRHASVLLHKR

[4] = biological target: IL1RAPL1-ECD-His6, wild type (mouse) (UniProt P59823); assay: as above
Chain of IL1RAPL1-ECD-His6, wild type (mouse) (P59823 19-352): as the sequence (P59823 19-352 M75A/Y77A/P88A/F91A) above, with A57M, A59Y, A70P, A73F counted along it

[5] = biological target: IL-1RAcP-ECD D30A (mouse) (UniProt Q61730); assay: SPR; equilibrium; Biacore T200, 25 °C, 10 mM Hepes (pH 7.9), 150 mM NaCl, 0.05% Tween-20; IL-1RAcP-ECD-Fc captured (about 700 RU) by anti-Fc antibodies immobilised on a CM5 chip; PTPδ Ig1–Fn1 variants or mutants injected as analytes, 15.6 to 4,000 nM
Chain of IL-1RAcP-ECD D30A (mouse) (Q61730 21-367 D30A): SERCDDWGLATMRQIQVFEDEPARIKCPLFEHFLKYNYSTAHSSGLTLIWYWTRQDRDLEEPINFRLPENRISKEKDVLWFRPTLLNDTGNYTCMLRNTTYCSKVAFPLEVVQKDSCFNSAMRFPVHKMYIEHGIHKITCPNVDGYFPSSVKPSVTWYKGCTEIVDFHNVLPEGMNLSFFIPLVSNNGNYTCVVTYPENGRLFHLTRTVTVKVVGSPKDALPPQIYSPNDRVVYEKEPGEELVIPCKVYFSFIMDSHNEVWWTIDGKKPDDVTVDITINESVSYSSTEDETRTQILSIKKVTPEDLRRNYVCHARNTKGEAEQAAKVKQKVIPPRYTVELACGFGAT

[6] = biological target: IL-1RAcP-ECD K94A (mouse) (UniProt Q61730); assay: as above
Chain of IL-1RAcP-ECD K94A (mouse) (Q61730 21-367 K94A): as the sequence (Q61730 21-367 D30A) above, with A10D, K74A counted along it

[7] = biological target: IL-1RAcP-ECD W27A (mouse) (UniProt Q61730); assay: as above
Chain of IL-1RAcP-ECD W27A (mouse) (Q61730 21-367 W27A): as the sequence (Q61730 21-367 D30A) above, with W7A, A10D counted along it

[8] = biological target: IL-1RAcP-ECD-Fc, wild type (mouse) (UniProt Q61730); assay: as above
Chain of IL-1RAcP-ECD-Fc, wild type (mouse) (Q61730 21-367): as the sequence (Q61730 21-367 D30A) above, with A10D counted along it

[9] = biological target: IL-1RAcP-ECD (His6-tagged, for crystallography) (mouse) (UniProt Q61730); assay: crystal structure; sitting drop vapour diffusion at 20 °C; the two proteins mixed at a molar ratio of 1:1 to about 6 g/l before crystallisation
Chain of IL-1RAcP-ECD (His6-tagged, for crystallography) (mouse) (Q61730 21-351): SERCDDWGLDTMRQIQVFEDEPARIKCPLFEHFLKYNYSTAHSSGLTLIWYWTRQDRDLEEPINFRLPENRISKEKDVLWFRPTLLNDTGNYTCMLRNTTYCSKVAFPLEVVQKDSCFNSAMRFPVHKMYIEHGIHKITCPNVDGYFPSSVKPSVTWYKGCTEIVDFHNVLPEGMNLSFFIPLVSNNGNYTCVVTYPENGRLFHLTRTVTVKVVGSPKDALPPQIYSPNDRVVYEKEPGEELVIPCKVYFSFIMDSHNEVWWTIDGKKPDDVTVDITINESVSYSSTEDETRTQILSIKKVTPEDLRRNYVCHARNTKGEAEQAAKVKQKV

[10] = biological target: IL1RAPL1-ECD-His6, wild type (mouse) (UniProt P59823); assay: as above

Chain of IL1RAPL1-ECD D37A (mouse) (P59823 19-352 D37A): as the sequence (P59823 19-352 M75A/Y77A/P88A/F91A) above, with D19A, A57M, A59Y, A70P, A73F counted along it
Chain of IL1RAPL1-ECD D292A (mouse) (P59823 19-352 D292A): as the sequence (P59823 19-352 M75A/Y77A/P88A/F91A) above, with A57M, A59Y, A70P, A73F, D274A counted along it

“PTPδ Ig1–Fn1 (isoform containing meA9 and meB), wild type (domain or fragment)” was tested, and the Kd [1] was 2.2 µM, the Kd [2] was 2.4 µM and the Kd [3] was 2.8 µM. For the same substance, the Kd [4] was 0.15 µM, the Kd [5] was 0.62 µM and the Kd [6] was 8.2 µM. The Kd [7] was 4.6 µM and the Kd [8] was 0.68 µM.

For PTPδ Ig1–Fn2 (domain or fragment), the stoichiometry N [9] was 1.

“PTPδ-ECD (full-length extracellular domain) (domain or fragment)” was tested, and the stoichiometry N [10] was 1.
